# Test results from patent publication US20240317834A1, “COMPOSITIONS AND METHODS FOR NEUROLOGICAL DISEASES” (CODA BIOTHERAPEUTICS, INC., priority 2020, published 2024).
# What was measured:
# Lenti-X 293T cells = test: YFP fluorescence quenching anion reporter plate reader assay of engineered receptors stimulated with acetylcholine or a non-native ligand; type: cell-based
# Method in brief: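 YFP quench was followed for about 1 min 43 s after ligand delivered in iodide-based ECS, pH 7.2. Values are end-of-read fluorescence (last 10 s) divided by the pre-ligand baseline (15 s). Cells were LX293T, transfected with receptor DNA a day before the assay.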
# HEK293T cells = test: High throughput electrophysiology (IonFlux automated patch clamp), EC50 of engineered receptors to ligands; type: cell-based
# Protocol: To confirm the EC50s determined by plate reader as well as develop a better understanding of maximum current flow, the engineered receptors were subjected to high throughput electrophysiology system, as described below. For HEK293T studies, cDNAs encoding ion channels were cloned into pcDNA3.1 using standard recombination techniques. HEK293T cells from Clontech (Lenti-X™ 293T Cell Line) were cultured in DMEM supplemented with 10% FBS and 1% Pen/Strep to 40-50% confluence using standard cell culture protocols, transfected with ion channel plasmids at a concentration of 18 μg per 15 cm dish using Fugene 6, and grown for an additional 24 hours. Cells were then assayed on an electrophysiological system (IonFluxHT and/or Mercury, Fluxion Biosciences) in which dose-response relationships may be assessed through a microfluidics-based platform for establishing whole cell configurations. Ensemble plates were primed with extracellular buffer (140 mM NaCl, 5 mM KCl, 2 mM CaCl2), 1 mM MgCl2, 10 mM HEPES, and 10 mM glucose, pH 7.2 with NaOH, mOsm 310), intracellular buffer (145 mM CsCl, 2 mM CaCl2), 2 mM MgCl2, 10 mM HEPES, and 10 mM EGTA, pH 7.2 with CsOH, mOsm 305), as adapted from Lynagh and Lynch, and test compounds (stocks prepared fresh) diluted in extracellular buffer. Cells were then released from the plate with Accutase, centrifuged, resuspended in extracellular buffer, and loaded into Ensemble plates. Cells were then subjected to a standard protocol for priming, trapping, breaking, and establishing whole cell configuration, with cells held at −60 mV throughout the recording. After recording baseline, progressive doses of test compounds were applied using the IonFlux software to assess dose response relationships. Data were then analyzed off-line using custom Python scripts to convert data to .csv format, re-plot traces, and apply QC measurements to reject unstable recordings (i.e. thresholding based on access resistance and/or standard deviation in baseline, as well as artifact rejection). Peak currents were then calculated, and population data were fit using a 4-parameter logistic equation as described by the Hill Equation. Currents were measured on an automated patch clamp system (Fluxion Biosciences) following 1 second addition of drug and the EC50 values calculated are tabulated below in Table 22 below and Table 21 above (in Example 2).
molecule,measurement,setting,value
"CODA536: engineered chimeric LGIC receptor, L131D, S172D in SEQ ID NO: 33 (protein, synthetic sequence of chimeric LGIC) MRCSPGGVWLALAASLLHVSLQGEFQRKLYKELVKNYNPLERPVANDSQPLTVYFSLSLLQIMDVDEKNQVLTTNIWLQMSWTDHYLQWNVSEYPGVKTVRFPDGQIWKPDILLYNSADERFDATFHTNVDVNSSGHCQYLPPGIFKSSCPMDLKNFPMDVQTCKLKFGSWDYGGWSLDLQMQEADISGYIPNGEWDLVGIPGKRSERFYECCKEPYPDVTFTVTMRRRMGYYLIQMYIPSLLIVILSWISFWINMDAAPARVGLGITTVLTMTTQSSGSRASLPKVSYVKAIDIWMAVCLLFVFSALLEYAAVNFVSRQHKELLRFRRKRRHHKSPMLNLFQEDEAGEGRFNFSAYGMGPACLQAKDGISVKGANNSNTTNPPPAPSKSPEEMRKLFIQRAKKIDKISRIGFPMAFLIFNMFYWIIYKIVRREDVHNQ",YFP fluorescence quenching using TC-5619/Bradanicline,Lenti-X 293T cells; 1 nM brd,−1.24%
same,YFP fluorescence quenching using TC-5619/Bradanicline,Lenti-X 293T cells; 3 nM brd,0.25%
same,YFP fluorescence quenching using TC-5619/Bradanicline,Lenti-X 293T cells; 10 nM brd,−2.57%
same,YFP fluorescence quenching using TC-5619/Bradanicline,Lenti-X 293T cells; 30 nM brd,0.78%
same,YFP fluorescence quenching using Facinicline,Lenti-X 293T cells; 30 nM fac,24.15
same,YFP fluorescence quenching using ABT-126,Lenti-X 293T cells; 50 nM abt,−3.19%
same,YFP fluorescence quenching using CNL002,Lenti-X 293T cells; 100 nM CNL002,71.72%
same,YFP fluorescence quenching using ABT-126,Lenti-X 293T cells; 100 nM abt,7.58%
same,YFP fluorescence quenching using AZD-0328,Lenti-X 293T cells; 100 nM azd0328,51.44%
same,YFP fluorescence quenching using TC-5619/Bradanicline,Lenti-X 293T cells; 100 nM brd,4.51%
same,YFP fluorescence quenching using ABT-126,Lenti-X 293T cells; 300 nM abt,−1.65%
same,YFP fluorescence quenching using AZD-0328,Lenti-X 293T cells; 300 nM azd0328,77.12%
same,YFP fluorescence quenching using TC-5619/Bradanicline,Lenti-X 293T cells; 300 nM brd,30.97%
same,YFP fluorescence quenching using Facinicline,Lenti-X 293T cells; 300 nM fac,80.17
same,YFP fluorescence quenching using CNL002,Lenti-X 293T cells; 1 uM CNL002,77.26%
same,YFP fluorescence quenching using ABT-126,Lenti-X 293T cells; 1 uM abt,31.29%
same,YFP fluorescence quenching using TC-5619/Bradanicline,Lenti-X 293T cells; 1 uM brd,44.41%
same,YFP fluorescence quenching using TC-6987,Lenti-X 293T cells; 1 uM tc6987,−18.24
same,YFP fluorescence quenching using Facinicline,Lenti-X 293T cells; 10 uM fac,81.34
same,YFP fluorescence quenching using TC-6987,Lenti-X 293T cells; 10 uM tc6987,−23.06
same,YFP fluorescence quenching using CNL002,Lenti-X 293T cells; 30 uM CNL002,77.5%
same,YFP fluorescence quenching using AZD-0328,Lenti-X 293T cells; 30 uM azd0328,79.26%
same,YFP fluorescence quenching using Facinicline,Lenti-X 293T cells; 30 uM fac,79.9
same,YFP fluorescence quenching using TC-6987,Lenti-X 293T cells; 500 uM tc6987,−19.3
same,"percent quench of YFP fluorescence, 30 nM TC-6683",Lenti-X 293T cells; TC-6683 30 nM,−22.285%
same,"percent quench of YFP fluorescence, 300 nM TC-6683",Lenti-X 293T cells; TC-6683 300 nM,−23.926%
same,"percent quench of YFP fluorescence, 3 uM TC-6683",Lenti-X 293T cells; TC-6683 3 uM,−20.514%
same,"percent quench of YFP fluorescence, 30 uM TC-6683",Lenti-X 293T cells; TC-6683 30 uM,−3.078%
same,"percent quench of YFP fluorescence, 100 uM TC-6683",Lenti-X 293T cells; TC-6683 100 uM,7.37%
same,"percent quench of YFP fluorescence, 10 uM ach",Lenti-X 293T cells; acetylcholine 10 uM,−12.91%
same,"percent quench of YFP fluorescence, 100 uM ach",Lenti-X 293T cells; acetylcholine 100 uM,−20.88%
same,"percent quench of YFP fluorescence, 1 mM ach",Lenti-X 293T cells; acetylcholine 1 mM,79.85%
same,"percent quench of YFP fluorescence, 3 mM ach",Lenti-X 293T cells; acetylcholine 3 mM,79.98%
same,fold increased potency towards AZD-0328 compared with wild type receptor,HEK293T cells; ligand AZD-0328,at least 10 fold
same,fold increased potency towards RG-3487 compared with wild type receptor,HEK293T cells; ligand RG-3487,at least 10 fold
